This is an account of results in US20120108503A1.

This assay addresses hepatic leptin receptor (rat) (UniProt Q62959). The experiment in a line: cell-based or functional assay.
Sequence of UniProt Q62959 (Q62959 22-1162): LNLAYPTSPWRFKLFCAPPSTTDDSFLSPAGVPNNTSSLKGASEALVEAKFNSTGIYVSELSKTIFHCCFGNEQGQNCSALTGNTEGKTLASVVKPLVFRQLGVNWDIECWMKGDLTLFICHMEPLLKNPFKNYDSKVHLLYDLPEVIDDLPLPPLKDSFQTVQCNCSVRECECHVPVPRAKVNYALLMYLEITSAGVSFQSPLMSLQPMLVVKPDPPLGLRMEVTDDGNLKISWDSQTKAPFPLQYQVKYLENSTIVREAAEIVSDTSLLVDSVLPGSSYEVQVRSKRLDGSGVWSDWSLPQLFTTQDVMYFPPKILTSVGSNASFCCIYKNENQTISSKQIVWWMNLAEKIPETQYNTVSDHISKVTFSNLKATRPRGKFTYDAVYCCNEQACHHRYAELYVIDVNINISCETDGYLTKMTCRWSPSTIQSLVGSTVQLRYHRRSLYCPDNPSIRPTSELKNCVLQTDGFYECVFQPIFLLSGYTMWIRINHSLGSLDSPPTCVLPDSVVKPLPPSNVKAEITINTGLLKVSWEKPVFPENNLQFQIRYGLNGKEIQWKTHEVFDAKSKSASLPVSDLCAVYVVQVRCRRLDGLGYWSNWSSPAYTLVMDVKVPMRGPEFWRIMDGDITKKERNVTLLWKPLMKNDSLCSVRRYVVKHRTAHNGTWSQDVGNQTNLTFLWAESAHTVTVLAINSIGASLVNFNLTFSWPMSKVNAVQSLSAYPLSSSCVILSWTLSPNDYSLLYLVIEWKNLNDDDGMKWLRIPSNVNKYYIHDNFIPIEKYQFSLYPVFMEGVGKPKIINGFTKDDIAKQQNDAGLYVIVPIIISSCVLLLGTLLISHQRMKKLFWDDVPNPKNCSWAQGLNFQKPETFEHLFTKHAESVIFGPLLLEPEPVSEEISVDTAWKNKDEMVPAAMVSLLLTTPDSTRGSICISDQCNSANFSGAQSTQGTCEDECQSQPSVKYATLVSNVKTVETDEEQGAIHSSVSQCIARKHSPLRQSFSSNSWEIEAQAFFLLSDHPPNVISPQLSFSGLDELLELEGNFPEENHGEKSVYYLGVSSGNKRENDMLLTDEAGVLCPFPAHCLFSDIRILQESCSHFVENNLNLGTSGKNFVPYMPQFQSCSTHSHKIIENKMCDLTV

“leptin expressed in vivo from adenovirus containing the leptin cDNA (Adv-leptin) (ligand)” displayed a hepatic phosho-STAT-3 of 3 fold.
